Measured values from publication PMC4014126 (2014).

B1: Myc-tagged mouse IL-17RA [mouse] / NF-κB activator 1 (Act1) [mouse (endogenous in MEFs)] (parent complex)
chain 1: SPRLLDFPAPVCAQEGLSCRVKNSTCLDDSWIHPKNLTPSSPKNIYINLSVSSTQHGELVPVLHVEWTLQTDASILYLEGAELSVLQLNTNERLCVKFQFLSMLQHHRKRWRFSFSHFVVDPGQEYEVTVHHLPKPIPDGDPNHKSKIIFVPDCEDSKMKMTTSCVSSGSLWDPNITVETLDTQHLRVDFTLWNESTPYQVLLESFSDSENHSCFDVVKQIFAPRQEEFHQRANVTFTLSKFHWCCHHHVQVQPFFSSCLNDCLRHAVTVPCPVISNTTVPKPVADYIPLWVYGLITLIAILLVGSVIVLIICMTWRLSGADQEKHGDDSKINGILPVADLTPPPLRPRKVWIVYSADHPLYVEVVLKFAQFLITACGTEVALDLLEEQVISEVGVMTWVSRQKQEMVESNSKIIILCSRGTQAKWKAILGWAEPAVQLRCDHWKPAGDLFTAAMNMILPDFKRPACFGTYVVCYFSGICSERDVPDLFNITSRYPLMDRFEEVYFRIQDLEMFEPGRMHHVRELTGDNYLQSPSGRQLKEAVLRFQEWQTQCPDWFERENLCLADGQDLPSLDEEVFEDPLLPPGGGIVKQQPLVRELPSDGCLVVDVCVSEEESRMAKLDPQLWPQRELVAHTLQSMVLPAEQVPAAHVVEPLHLPDGSGAAAQLPMTEDSEACPLLGVQRNSILCLPVDSDDLPLCSTPMMSPDHLQGDAREQLESLMLSVLQQSLSGQPLESWPRPEVVLEGCTPSEEEQRQSVQSDQGYISRSSPQPPEWLTEEEELELGEPVESLSPEELRSLRKLQRQLFFWELEKNPGWNSLEPRRPTPEEQNPS
chain 2: MNRSIPVEVDESEPFPSQLLKPIPEYSPEEELEPPAPNTRNMAPSSLSVLQCPPLKLANHQPVSQQVTCLRAKVLEEGEASFFRRHPELGKDISSCSSGASEPESELGALPPEHRFTLTEKRNRWLGSQLSAASPDTGHESDKSDPSLPNALADSFSGGQEMMPRPRPRPGPHRHRAAPDVPTIDTGYDSQPQDVLGIRQLERPLPLTSSCYLQDLPGPLRSRELPPQFELERYPMNAQLLPPHPSPQAPWNCQYYCPGGPYHHQVPHGHGYPPAAAYQQVLQPALPGQVLPGARARGPRPVQKVILNDSSPQDQEERPAQRDFSFPRLPRDQLYRPPSNGVEAPEESLDLPAELRPHGPQAPSLAAVPRPPSNPLARGTLRTSNLPEELRKVFITYSMDTAMEVVKFVNFLLVNGFQTAIDIFEDRIRGIDIIKWMERYLRDKTVMIIVAISPKYKQDVEGAESQLDEDEHGLHTKYIHRMMQIEFISQGSMNFRFIPVLFPNAKKEHVPTWLQNTHVYSWPKNKKNILLRLLREEEYVAPPRGPLPTLQVVPL

Variants of: B1
Test: co-immunoprecipitation (anti-Myc IP, Western blot, ImageJ densitometry); IL-17RA-deficient MEFs reconstituted by retroviral infection; treated with IL-17 for 10 min; parent: 100
chain 1 R420A, chain 1 Q423A, chain 1 K427A was tested, and the percent of parent was 107.
With chain 1 I429A, chain 1 L430A the percent of parent was 102.
chain 1 E388A, chain 1 Q389A, chain 1 E393A was tested, and the percent of parent was 107.
chain 1 V396A, chain 1 M397A showed a percent of parent of 98.
